Experimental data published in US20220096654A1, “PYRROLOBENZODIAZEPINE-ANTIBODY CONJUGATES AND USES THEREOF” (ADC THERAPEUTICS SA, priority 2020, published 2022).

Key:
Assay in all cases: cell-based or functional assay
human CD45 [1] = target: T1, human CD45 (human, UniProt P08575 26-1306)
T1 sequence: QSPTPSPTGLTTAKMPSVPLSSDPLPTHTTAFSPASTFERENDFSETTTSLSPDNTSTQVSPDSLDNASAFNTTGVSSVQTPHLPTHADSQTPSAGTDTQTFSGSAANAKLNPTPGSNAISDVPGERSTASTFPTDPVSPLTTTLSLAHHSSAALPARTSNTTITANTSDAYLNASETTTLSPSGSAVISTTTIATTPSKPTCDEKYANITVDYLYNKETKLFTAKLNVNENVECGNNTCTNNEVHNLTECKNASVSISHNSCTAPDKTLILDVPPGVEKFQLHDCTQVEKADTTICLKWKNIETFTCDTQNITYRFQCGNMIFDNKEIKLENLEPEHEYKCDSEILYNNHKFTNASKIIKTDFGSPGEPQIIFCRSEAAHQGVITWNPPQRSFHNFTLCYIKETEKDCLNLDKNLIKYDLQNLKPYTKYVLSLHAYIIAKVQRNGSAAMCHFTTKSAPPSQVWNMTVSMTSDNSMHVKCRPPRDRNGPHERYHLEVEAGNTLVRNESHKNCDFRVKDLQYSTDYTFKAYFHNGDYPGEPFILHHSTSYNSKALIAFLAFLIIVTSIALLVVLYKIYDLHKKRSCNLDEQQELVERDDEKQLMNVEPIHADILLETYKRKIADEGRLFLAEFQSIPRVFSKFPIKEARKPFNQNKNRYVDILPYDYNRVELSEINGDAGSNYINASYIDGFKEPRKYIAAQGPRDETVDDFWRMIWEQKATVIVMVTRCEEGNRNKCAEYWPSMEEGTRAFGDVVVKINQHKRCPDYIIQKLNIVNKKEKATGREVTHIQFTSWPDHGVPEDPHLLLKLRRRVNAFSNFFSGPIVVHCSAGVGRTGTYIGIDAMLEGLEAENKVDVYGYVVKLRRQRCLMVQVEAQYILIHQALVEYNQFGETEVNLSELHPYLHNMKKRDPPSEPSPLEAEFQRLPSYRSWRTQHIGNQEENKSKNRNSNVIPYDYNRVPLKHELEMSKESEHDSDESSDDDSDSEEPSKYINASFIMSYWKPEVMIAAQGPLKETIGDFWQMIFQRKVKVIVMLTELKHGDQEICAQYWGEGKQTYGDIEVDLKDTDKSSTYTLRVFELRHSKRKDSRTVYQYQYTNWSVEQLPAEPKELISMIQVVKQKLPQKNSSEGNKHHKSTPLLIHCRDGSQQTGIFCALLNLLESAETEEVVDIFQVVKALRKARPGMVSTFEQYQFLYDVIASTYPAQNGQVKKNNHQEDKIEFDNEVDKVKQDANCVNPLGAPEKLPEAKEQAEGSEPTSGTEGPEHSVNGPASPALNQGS

human CD45 [2] = target: T1, human CD45; remark: listed apart in the source
human CD45 [3] = target: T1, human CD45; remark: listed apart in the source

B1: YTH54.12-hIgG1-AAA-PBD (antibody, DAR 2.10, V domains shown)
VH: EVQLVESGGGLVQPGGSMKLSCAASGFTFSDYYMAWVRQAPKKGLEWVASMSFAGSSTYYGDSVKGRFTISRDNAKTTLYLQMNSLRSEDTATYYCARMYTTDYYLYWYFDFWGPGTMVTVSS
VL: DVQMTQSPSYLAASPGESVSISCKASKSISNYLAWYQQKPGEANKILIYSGSTLQSGTPSRFSGSGSGTDFSLTIRNLEPEDFAVYYCQQYDEKPLTFGSGTKLEIK
For B1, the “EC50, clonogenic assay, CD34+ PBSC (CD45+)” value (“EC50 … CD34+ PBSC (CD45+)” for short) (human CD45 [1]) was 6.4 pM, the “EC50, viability assay, Jurkat (CD45+), 72 h” value (from here on “EC50 … Jurkat (CD45+), 72 h”) (human CD45 [1]) was 18 pM and the “EC50, viability assay, OCIM1 (CD45+), 72 h” value (shortened to “EC50 … OCIM1 (CD45+), 72 h”) (human CD45 [1]) was 9.7 pM.

B2: YTH54.12-B2 (antibody, V domains shown)
VH: EVQLVESGGGLVQPGGSMKLSCAASGFTFSDYYMAWVRQAPKKGLEWVASMSFAGSSTYYGDSVKGRFTISRDNAKTTLYLQMNSLRSEDTATYYCARMYTTDYYLYWYFDFWGPGTMVTVSS
VL: DVQMTQSPSYLAASPGESVSISCKASKSISNYLAWYQQKPGEANKILIYSGSTLQSGTPSRFSGSGSGTDFSLTIRNLEPEDFAVYYCQQYDEKPLTFGSGTKLEIKR
modifications: PBD drug-linker B2 conjugated; sites and DAR not stated
B2 was tested, and the “Average EC50, viability assay, Jurkat (CD45+), 5 days” value (shortened to “Average EC50, viability assay, Jurkat”) (human CD45 [2]) was 2.43 pM, the “Average EC50, viability assay, OCIM1 (CD45+), 5 days” value (from here on “Average EC50, viability assay, OCIM1”) (human CD45 [2]) was 0.58 pM and the “Average EC50, clonogenic assay, primary human CD34+ cells” value (“Average EC50, clonogenic assay” below) (human CD45 [3]) was 23.9 pM.

B3: YTH54.12-B7 (antibody, V domains shown)
VH: EVQLVESGGGLVQPGGSMKLSCAASGFTFSDYYMAWVRQAPKKGLEWVASMSFAGSSTYYGDSVKGRFTISRDNAKTTLYLQMNSLRSEDTATYYCARMYTTDYYLYWYFDFWGPGTMVTVSS
VL: DVQMTQSPSYLAASPGESVSISCKASKSISNYLAWYQQKPGEANKILIYSGSTLQSGTPSRFSGSGSGTDFSLTIRNLEPEDFAVYYCQQYDEKPLTFGSGTKLEIKR
modifications: PBD drug-linker B7 conjugated; sites and DAR not stated
In the case of B3, the “Average EC50, viability assay, Jurkat” value (human CD45 [2]) is reported as 4.79 pM, the “Average EC50, viability assay, OCIM1” value (human CD45 [2]) is reported as 1.07 pM and the “Average EC50, clonogenic assay” value (human CD45 [3]) is reported as 45.1 pM.

B4: YTH54.12-B4 (antibody, V domains shown)
VH: EVQLVESGGGLVQPGGSMKLSCAASGFTFSDYYMAWVRQAPKKGLEWVASMSFAGSSTYYGDSVKGRFTISRDNAKTTLYLQMNSLRSEDTATYYCARMYTTDYYLYWYFDFWGPGTMVTVSS
VL: DVQMTQSPSYLAASPGESVSISCKASKSISNYLAWYQQKPGEANKILIYSGSTLQSGTPSRFSGSGSGTDFSLTIRNLEPEDFAVYYCQQYDEKPLTFGSGTKLEIKR
modifications: PBD drug-linker B4 (non-cleavable) conjugated; sites and DAR not stated
B4 was tested, and the “Average EC50, viability assay, Jurkat” value (human CD45 [2]) was 0.091 pM, the “Average EC50, viability assay, OCIM1” value (human CD45 [2]) was 0.22 pM and the “Average EC50, clonogenic assay” value (human CD45 [3]) was 4.47 pM.

B5: YTH54.12-rat IgG2b-PBD (drug-linker B1) (antibody, V domains shown)
VH: EVQLVESGGGLVQPGGSMKLSCAASGFTFSDYYMAWVRQAPKKGLEWVASMSFAGSSTYYGDSVKGRFTISRDNAKTTLYLQMNSLRSEDTATYYCARMYTTDYYLYWYFDFWGPGTMVTVSS
VL: DVQMTQSPSYLAASPGESVSISCKASKSISNYLAWYQQKPGEANKILIYSGSTLQSGTPSRFSGSGSGTDFSLTIRNLEPEDFAVYYCQQYDEKPLTFGSGTKLEIKR
modifications: PBD dimer drug-linker B1; light chains unconjugated or attached to a single molecule of B1; sites not given; PBD dimer drug-linker B1 conjugated after TCEP reduction; heavy chains attached to up to five molecules of B1; sites not given; DAR 1.90 (preparation) / 2.00
B5 was tested, and the “Average EC50, viability assay, Jurkat” value (human CD45 [2]) was 0.127 pM, the “Average EC50, viability assay, OCIM1” value (human CD45 [2]) was 0.039 pM and the “EC50 … CD34+ PBSC (CD45+)” value (human CD45 [1]) was 23 pM. For the same binder, the “EC50 … Jurkat (CD45+), 72 h” value (human CD45 [1]) was 4.44 pM, the “EC50 … OCIM1 (CD45+), 72 h” value (human CD45 [1]) was 1.89 pM and the “Average EC50, clonogenic assay” value (human CD45 [3]) was 1.52 pM.

B6: YTH24.5-rat IgG2b-PBD (drug-linker B1) (antibody, V domains shown)
VH: QVNLLQSGAALVKPGASVKLSCKASSYTFTDYYIHWVKQSHGKTLEWIGYINPKSGFTNYNEKFRRKATLTVDKSTNTAYMDISRLTSEDSATYYCTRRTGVIPMDAWGQGASVTVSS
VL: DVVMTQTPVSLSVSLGGQVSISCRSSQSFVSSDGNTYLNWYLQKPGQSPQLLIYKVSNRLSGVPDRFSGSGSGTDFTLKISRVEHDDLGVYYCGQASKIPLTFGSGTKLEIKR
modifications: PBD dimer drug-linker B1; light chains unconjugated or attached to a single molecule of B1; sites not given; PBD dimer drug-linker B1 conjugated after TCEP reduction; heavy chains attached to up to five molecules of B1; sites not given; DAR 1.94 (preparation) / 2.00
For B6, the “Average EC50, viability assay, Jurkat” value (human CD45 [2]) was 0.213 pM, the “Average EC50, viability assay, OCIM1” value (human CD45 [2]) was 0.03 pM and the “EC50 … CD34+ PBSC (CD45+)” value (human CD45 [1]) was 16.5 pM. For the same binder, the “EC50 … Jurkat (CD45+), 72 h” value (human CD45 [1]) was 5.36 pM, the “EC50 … OCIM1 (CD45+), 72 h” value (human CD45 [1]) was 1.38 pM and the “Average EC50, clonogenic assay” value (human CD45 [3]) was 2.64 pM.

B7: YTH24.5-B7 (antibody, V domains shown)
VH: QVNLLQSGAALVKPGASVKLSCKASSYTFTDYYIHWVKQSHGKTLEWIGYINPKSGFTNYNEKFRRKATLTVDKSTNTAYMDISRLTSEDSATYYCTRRTGVIPMDAWGQGASVTVSS
VL: DVVMTQTPVSLSVSLGGQVSISCRSSQSFVSSDGNTYLNWYLQKPGQSPQLLIYKVSNRLSGVPDRFSGSGSGTDFTLKISRVEHDDLGVYYCGQASKIPLTFGSGTKLEIKR
modifications: PBD drug-linker B7 conjugated; sites and DAR not stated
With B7 the “Average EC50, viability assay, Jurkat” value (human CD45 [2]) was 8.4 pM, the “Average EC50, viability assay, OCIM1” value (human CD45 [2]) was 2.18 pM and the “Average EC50, clonogenic assay” value (human CD45 [3]) was 35.5 pM.

B8: YTH24.5-B2 (antibody, V domains shown)
VH: QVNLLQSGAALVKPGASVKLSCKASSYTFTDYYIHWVKQSHGKTLEWIGYINPKSGFTNYNEKFRRKATLTVDKSTNTAYMDISRLTSEDSATYYCTRRTGVIPMDAWGQGASVTVSS
VL: DVVMTQTPVSLSVSLGGQVSISCRSSQSFVSSDGNTYLNWYLQKPGQSPQLLIYKVSNRLSGVPDRFSGSGSGTDFTLKISRVEHDDLGVYYCGQASKIPLTFGSGTKLEIKR
modifications: PBD drug-linker B2 conjugated; sites and DAR not stated
B8 was tested, and the “Average EC50, viability assay, Jurkat” value (human CD45 [2]) was 2.12 pM, the “Average EC50, viability assay, OCIM1” value (human CD45 [2]) was 0.025 pM and the “Average EC50, clonogenic assay” value (human CD45 [3]) was 32.7 pM.

B9: YTH24.5-hIgG1-AAA-PBD (antibody, DAR 2.08, V domains shown)
VH: QVNLLQSGAALVKPGASVKLSCKASSYTFTDYYIHWVKQSHGKTLEWIGYINPKSGFTNYNEKFRRKATLTVDKSTNTAYMDISRLTSEDSATYYCTRRTGVIPMDAWGQGASVTVSS
VL: DVVMTQTPVSLSVSLGGQVSISCRSSQSFVSSDGNTYLNWYLQKPGQSPQLLIYKVSNRLSGVPDRFSGSGSGTDFTLKISRVEHDDLGVYYCGQASKIPLTFGSGTKLEIK
B9 was tested, and the “EC50 … CD34+ PBSC (CD45+)” value (human CD45 [1]) was 7.9 pM, the “EC50 … Jurkat (CD45+), 72 h” value (human CD45 [1]) was 23 pM and the “EC50 … OCIM1 (CD45+), 72 h” value (human CD45 [1]) was 6.8 pM.

B10: YTH24.5-B4 (antibody, V domains shown)
VH: QVNLLQSGAALVKPGASVKLSCKASSYTFTDYYIHWVKQSHGKTLEWIGYINPKSGFTNYNEKFRRKATLTVDKSTNTAYMDISRLTSEDSATYYCTRRTGVIPMDAWGQGASVTVSS
VL: DVVMTQTPVSLSVSLGGQVSISCRSSQSFVSSDGNTYLNWYLQKPGQSPQLLIYKVSNRLSGVPDRFSGSGSGTDFTLKISRVEHDDLGVYYCGQASKIPLTFGSGTKLEIKR
modifications: PBD drug-linker B4 (non-cleavable) conjugated; sites and DAR not stated
B10 was tested, and the “Average EC50, viability assay, Jurkat” value (human CD45 [2]) was 0.052 pM, the “Average EC50, viability assay, OCIM1” value (human CD45 [2]) was 0.096 pM and the “Average EC50, clonogenic assay” value (human CD45 [3]) was 4.92 pM.
